Data on 3 molecules can be found in patent publication US20110081661A1, “Modified photoproteins with increased affinity for calcium and enhanced bioluminescence and uses thereof” (Millipore Corporation, priority 2009, published 2011).

Test [1] has as its target T1, EP1 Receptor (Homo sapiens, UniProt P34995).
T1 construct: host or cells: HEK293T
T1 sequence (P34995 1-402): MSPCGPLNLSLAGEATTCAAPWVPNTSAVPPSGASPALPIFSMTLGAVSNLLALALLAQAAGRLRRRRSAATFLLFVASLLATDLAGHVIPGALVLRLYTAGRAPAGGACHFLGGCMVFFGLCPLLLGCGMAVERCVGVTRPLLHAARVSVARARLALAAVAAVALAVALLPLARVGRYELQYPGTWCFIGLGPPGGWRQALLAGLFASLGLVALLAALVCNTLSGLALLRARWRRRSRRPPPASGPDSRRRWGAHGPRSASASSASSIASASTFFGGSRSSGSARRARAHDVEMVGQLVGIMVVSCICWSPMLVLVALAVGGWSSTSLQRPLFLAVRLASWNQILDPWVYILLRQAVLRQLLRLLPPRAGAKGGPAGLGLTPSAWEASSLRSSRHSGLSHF
The test is classed as cell-based. The following applies: read-out: EP1 Receptor EC50 for PGE2.
Experimental: The cells were subsequently thawed and either directly placed into FreeStyle media (INVITROGEN) containing 5 μM coelenterazine (Thaw/Assay), or plated in a flask overnight in growth media consisting of DMEM/F12 containing 10% fetal bovine serum, non-essential amino acids, and penicillin/streptomycin prior to loading with coelenterazine (Thaw/ON Recovery). After loading with coelenterazine for 3-4 h, the cells were centrifuged and resuspended in HBSS with calcium and magnesium.
Thaw/Assay indicates dose response of cells that were thawed and directly loaded with coelenterazine prior to assay, and Thaw/ON Recovery indicates dose response of cells allowed to recover in growth media overnight prior to loading and assay. […] The EC50 values for activation of each receptor by its ligand for each cell treatment method were determined as described above for FIG. 5 for cytosolic clytin K168D photoprotein transfected into HEK293T cells with cotransfected GIP Receptor and G protein.

Test [2] addresses T1, EP1 Receptor. The experiment in a line: Fluorescent calcium assay, stable cell line, EP1 Receptor. The test is classed as cell-based. The following applies: read-out: EP1 Receptor EC50 for PGE2; Fluorescent Ca^2+ assay, cell line stably expressing the receptor.
Test [3] is described as follows: Calcium EC50 of mitochondrially targeted photoproteins in HEK293T cells without cotransfected GPCR or G protein (Table II). Type of test: cell-based. The settings on record: no cotransfected GPCR or G protein.
Test [4] deals with T2, H1 histamine receptor (Homo sapiens, UniProt P35367).
T2 construct: expressed in transfected cells; host or cells: U-2OS
T2 sequence (P35367 whole entry): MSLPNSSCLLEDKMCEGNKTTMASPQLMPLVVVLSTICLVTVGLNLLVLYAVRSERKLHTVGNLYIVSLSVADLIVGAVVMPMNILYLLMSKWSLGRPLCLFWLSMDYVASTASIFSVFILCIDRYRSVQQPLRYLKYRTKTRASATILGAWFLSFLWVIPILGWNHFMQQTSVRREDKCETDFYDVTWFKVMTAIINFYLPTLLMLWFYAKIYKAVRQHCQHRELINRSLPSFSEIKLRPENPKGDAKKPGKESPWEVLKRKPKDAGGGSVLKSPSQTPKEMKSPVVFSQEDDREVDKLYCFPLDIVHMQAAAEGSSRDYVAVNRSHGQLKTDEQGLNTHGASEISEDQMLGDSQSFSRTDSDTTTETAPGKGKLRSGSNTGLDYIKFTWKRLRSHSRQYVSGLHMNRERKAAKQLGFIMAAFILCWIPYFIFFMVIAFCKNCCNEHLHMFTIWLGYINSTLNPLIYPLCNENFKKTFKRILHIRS
The experiment in a line: GPCR-mediated versus total bioluminescence in U-2OS cells (FIG. 4). The settings on record: 10 μM histamine vs Triton X-100 with 1 mM calcium. Type of test: cell-based. The protocol:
In another experiment, the ability of the various photoproteins to detect calcium flux in live cells was assessed by adding varying concentrations of histamine to cells in order to activate the H1 histamine receptor followed by measurement of bioluminescence of the various photoproteins. U-2OS cells were transfected with a cDNA encoding H1 histamine receptor along with a cDNA encoding either a wild-type photoprotein or a modified photoprotein according to the invention, as described above in Example 2, except that Lipofectamine-2000 (INVITROGEN) was used as the transfection reagent. On the second day, the cells were trypsinized, counted, and plated in a white tissue-culture treated 96-well plate (COSTAR) at a density of about 50,000 cells/well in growth media consisting of DMEM containing 10% fetal bovine serum, non-essential amino acids, HEPES and penicillin/streptomycin. On the third day, the medium was removed and cells were washed once with 200 μl/well of HBSS/HEPES (containing Ca^2+). Cells were subsequently incubated with 5 μM coelenterazine in HBSS/HEPES (containing Ca^2+) in a volume of 200 μl/well, for 3-4 hours at room temperature in the dark. After incubation, the coelenterazine solution was removed and cells were washed and replaced with HBSS/HEPES buffer containing both Ca^2+ and Mg^2+. 50 μl/well of histamine at varying concentrations in HBSS/HEPES containing both Ca^2+ and Mg^2+ was added to the cells and total bioluminescence was measured at 20 seconds using a Victor2 luminometer.
In an exemplary experiment, U-2OS cells were transfected, plated and loaded with coelenterazine as described in Example 3. Luminescence induced by buffer alone or by 10 μM histamine was measured also as described in Example 3. Additionally, luminescence induced by addition of Triton X-100 in the presence of 1 mM calcium was also determined in order to assess the total amount of active photoprotein detectable using saturating calcium concentrations in cells.

A further test deals with T3, GIP Receptor (Homo sapiens, UniProt P48546).
T3 construct: host or cells: HEK293T
T3 sequence (P48546 22-466): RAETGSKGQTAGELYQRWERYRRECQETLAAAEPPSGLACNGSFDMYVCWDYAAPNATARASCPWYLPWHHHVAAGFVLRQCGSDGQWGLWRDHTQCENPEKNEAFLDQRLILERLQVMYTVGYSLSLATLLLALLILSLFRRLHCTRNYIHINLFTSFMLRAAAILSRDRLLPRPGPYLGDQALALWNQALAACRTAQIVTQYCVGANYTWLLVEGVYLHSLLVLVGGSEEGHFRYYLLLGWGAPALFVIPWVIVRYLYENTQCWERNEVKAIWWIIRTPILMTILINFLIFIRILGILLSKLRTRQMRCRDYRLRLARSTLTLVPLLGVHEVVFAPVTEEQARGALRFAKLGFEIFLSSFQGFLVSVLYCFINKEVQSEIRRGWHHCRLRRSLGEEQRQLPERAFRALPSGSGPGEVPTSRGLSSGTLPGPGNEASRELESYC
The experiment in a line: GIP receptor-mediated bioluminescence in HEK293T cells with chimeric promiscuous G protein (FIG. 5, Table II). The test is classed as cell-based. The following applies: for % GPCR/total: signal induced by maximal GIP (1 μM) as percentage of signal induced by Triton X-100 with 1 mM Ca^2+; for Signal: background with GIP: signal induced by maximal GIP (1 μM) divided by signal induced by buffer alone.

For test [5] the following is noted: background statement; cited from earlier work.
The target of test [6] is T2, H1 histamine receptor. As to the kind of experiment: H1 histamine receptor-mediated bioluminescence in U-2OS cells (FIG. 3). The test is classed as cell-based. The settings on record: total bioluminescence at 20 seconds. An excerpt:
Following the generation of modified forms of Clytin, the various variants were compared with wt-Aequorin for their affinity for intracellular calcium in transient transfection assays using co-transfection with the H1 histamine receptor (Genbank Accession No. NM_000861, obtained by PCR using H1-specific primers from a human brain cDNA library, forward primer 5′-[…] ATTCCTC-3′ (SEQ ID NO:60), reverse primer 5′-[…] AATTCTC-3′ (SEQ ID NO:61).
In another experiment, the ability of the various photoproteins to detect calcium flux in live cells was assessed by adding varying concentrations of histamine to cells in order to activate the H1 histamine receptor followed by measurement of bioluminescence of the various photoproteins. […] On the second day, the cells were trypsinized, counted, and plated in a white tissue-culture treated 96-well plate (COSTAR) at a density of about 50,000 cells/well in growth media consisting of DMEM containing 10% fetal bovine serum, non-essential amino acids, HEPES and penicillin/streptomycin. […] 50 μl/well of histamine at varying concentrations in HBSS/HEPES containing both Ca^2+ and Mg^2+ was added to the cells and total bioluminescence was measured at 20 seconds using a Victor2 luminometer.

The target of another test is T4, TRPA1 cation channel (Homo sapiens, UniProt O75762).
T4 construct: host or cells: HEK293
T4 sequence (O75762 whole entry): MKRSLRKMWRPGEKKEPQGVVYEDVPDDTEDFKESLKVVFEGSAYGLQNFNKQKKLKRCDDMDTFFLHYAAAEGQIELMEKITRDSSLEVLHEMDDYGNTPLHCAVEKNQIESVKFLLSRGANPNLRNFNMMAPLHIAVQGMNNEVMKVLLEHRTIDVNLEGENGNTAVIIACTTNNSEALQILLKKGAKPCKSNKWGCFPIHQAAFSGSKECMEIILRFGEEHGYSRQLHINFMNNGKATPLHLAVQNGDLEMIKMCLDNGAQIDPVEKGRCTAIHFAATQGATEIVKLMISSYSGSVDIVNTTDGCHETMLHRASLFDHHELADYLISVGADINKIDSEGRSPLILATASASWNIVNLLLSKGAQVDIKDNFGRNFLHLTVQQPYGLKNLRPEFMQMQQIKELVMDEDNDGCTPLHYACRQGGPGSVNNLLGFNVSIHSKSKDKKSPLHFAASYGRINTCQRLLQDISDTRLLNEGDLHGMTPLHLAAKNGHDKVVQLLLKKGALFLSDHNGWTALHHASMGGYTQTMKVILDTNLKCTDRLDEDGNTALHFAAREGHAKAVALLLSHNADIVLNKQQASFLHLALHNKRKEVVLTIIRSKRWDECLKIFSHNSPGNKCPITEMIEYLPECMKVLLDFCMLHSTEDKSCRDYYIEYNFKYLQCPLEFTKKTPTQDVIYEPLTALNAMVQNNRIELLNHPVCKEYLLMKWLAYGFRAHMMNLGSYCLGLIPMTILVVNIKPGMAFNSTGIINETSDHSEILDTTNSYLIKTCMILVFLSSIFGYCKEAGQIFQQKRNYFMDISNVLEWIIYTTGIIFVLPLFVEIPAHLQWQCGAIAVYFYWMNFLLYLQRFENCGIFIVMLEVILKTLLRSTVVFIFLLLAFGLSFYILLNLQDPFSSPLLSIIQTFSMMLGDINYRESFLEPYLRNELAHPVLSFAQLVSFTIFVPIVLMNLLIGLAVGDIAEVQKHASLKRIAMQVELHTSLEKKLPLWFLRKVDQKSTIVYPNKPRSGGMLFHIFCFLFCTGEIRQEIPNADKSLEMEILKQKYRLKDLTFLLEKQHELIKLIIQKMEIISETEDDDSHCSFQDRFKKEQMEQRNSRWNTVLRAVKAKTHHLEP
As to the kind of experiment: Ion channel-mediated bioluminescence in HEK293 cells stably expressing TRPA1, induced by AITC. Type of test: cell-based. The settings on record: HEK293 cells stably expressing TRPA1, AITC 10^−6 to 10^−3.5 M.

The mark [7] stands for this setting: HEK293T cells, GIP Receptor + promiscuous G protein.
The mark [8] stands for this setting: HEK293T cells, GIP Receptor + promiscuous G protein, luminescence vs GIP concentration.
Setting [9] is: listed as cytosolic Clytin K168D.

Like-named read-outs stand apart in the source and are kept apart here.

As a reminder, the EC50 is the concentration giving half of the maximal effect. `CCCCC[C@H](O)/C=C/[C@H]1[C@H](O)CC(=O)[C@@H]1C/C=C\CCCC(=O)O` [PGE2, prostaglandin E2]: the EC50 came to 6 nM on EP1 Receptor [1] (Luminescent Assay, Thaw/Assay); 10 nM on EP1 Receptor [1] (Luminescent assay, Thaw/ON Recovery); 3 nM at EP1 Receptor [2].

B1: Cyto-aequorin: Wild-type Aequorin (wt-Aequorin) amino acid sequence, SEQ ID NO:2; cytosolic (protein, listed as Aequorea victoria)
chain: MTSKQYSVKLTSDFDNPRWIGRHKHMFNFLDVNHNGKISLDEMVYKASDIVINNLGATPEQAKRHKDAVEAFFGGAGMKYGVETDWPAYIEGWKKLATDELEKYAKNEPTLIRIWGDALFDIVDKDQNGAITLDEWKAYTKAAGIIQSSEDCEETFRVCDIDESGQLDVDEMTRQHLGFWYTMDPACEKLYGGAVP
In the case of B1, the values for the EC50 (in test [3]; with GIP Receptor (setting [8])) were 235 nM and 6.67 nM, respectively. The “GPCR-mediated signal as % of the total signal” value with H1 histamine receptor [4] is on record as “about 30%”. In the test with GIP Receptor (setting [7]), the “Max signal with GIP (RLU × 10^−5)” value is on record as 1.21 RLU × 10^−5. In the test with GIP Receptor, the “% GPCR/total” value was 13.0%. Further, in the test with GIP Receptor, the “Signal: background with GIP” value turned out to be 29.4. Moreover, the affinity for calcium entry in test [5] is listed as “around 7 μM”.

B2: Cyto-clytin K168D: K168D modified Clytin amino acid sequence, SEQ ID NO:9; cytosolic (protein)
chain: MADTASKYAVKLRPNFDNPKWVNRHKFMFNFLDINGDGKITLDEIVSKASDDICAKLGATPEQTKRHQDAVEAFFKKIGMDYGKEVEFPAFVDGWKELANYDLKLWSQNKKSLIRDWGEAVFDIFDKDGSGSISLDEWKAYGRISGICSSDEDAEKTFKHCDLDNSGDLDVDEMTRQHLGFWYTLDPNADGLYGNFVP
For B2, the EC50 in test [3] was 160 nM. In the test with H1 histamine receptor [6], the “luminescence induced by histamine” value was “much higher luminescence than the other forms of Clytin and Aequorin”. The “GPCR-mediated signal as % of the total signal” value in the test with H1 histamine receptor [4] is reported as around 100%. Besides, the “signal intensities, GIP dose response (FIG. 5)” value with GIP Receptor (HEK293T cells, GIP 10^−11 to 10^−6 M) is “significantly higher signal intensities than any of the wild-type photoproteins”. Besides, the “Max signal with GIP (RLU × 10^−5)” value in the test with GIP Receptor (setting [7]) is given as 8.76 RLU × 10^−5. The “Max signal with GIP (RLU × 10^−5)” value with GIP Receptor (HEK293T cells, GIP Receptor + promiscuous G protein, listed as cytosolic Clytin K168D) was “highest maximal signal”. For the same molecule, in the test with GIP Receptor (setting [8]), the EC50 was 4.01 nM and the “EC50 for GIP (nM)” value is reported as “lowest EC50”. Further, in the test with GIP Receptor, the “% GPCR/total” value came to 55.6% and the “Signal: background with GIP” value is recorded as 74.3. Moreover, in the test with GIP Receptor (setting [9]), the “% GPCR/total” value is recorded as “highest % GPCR/total” and the “Signal: background with GIP” value is “highest signal to background ratio”. Further, in the test with TRPA1 cation channel, the “EC50 (AITC dose response)” value is given as “lower EC50 than cytosolic wild-type Clytin”; the “signal (AITC-induced bioluminescence)” value was “higher signal than cytosolic and mitochondrial Aequorin”.
